For eleven molecules, Kd results are on record in patent publication US20250353912A1 (published 2025).

One test addresses CD3 on Jurkat cells (UniProt P07766 23-207). The experiment in a line: cell binding, flow cytometry. A general note: A flow cytometer gives signals particle by particle.
Test [1] addresses T1, KRAS(G12C) residues 4-18 peptide conjugated to AMG-510.
T1 peptide: YKLVVVGAC(AMG‑510)GVGKSA[dPEG4]K(long chain biotin)-NH2
The test can be described thus: bead binding assay; apparent KD.

In test [2] the target is HLA-A*01:01 in complex with the BTK peptide … conjugated with Ibrutinib (human;, ibrutinib covalently bound to Cys). The test can be described thus: multiplex bead-binding assay.
In the next test the target is RAS-AMG510. The experiment in a line: cell binding, flow cytometry (peptide-pulsed Raji cells); apparent KD.

Where no end group is shown, it is not given here. [ ]: non-standard residue; d: D form.

B1: AMRA3-7D_CrossMab (bispecific antibody)
chain: EVQLLESGGGLVQPGGSLRLSCAASGFTFSTYAMNWVRQAPGKGLEWVSRIRSKYNNYATYYADSVKGRFTISRDDSKNTLYLQMNSLRAEDTAVYYCVRHGNFGNSYVSWFAYWGQGTLVTVSSASVAAPSVFIFPPSDEQLKSGTASVVCLLNNFYPREAKVQWKVDNALQSGNSQESVTEQDSKDSTYSLSSTLTLSKADYEKHKVYACEVTHQGLSSPVTKSFNRGEC
heavy 1: not shown
heavy 2: EVQLVESGGGLVQPGGSLRLSCAASGFTFSDYSIHWVRQAPGKGLEWVASISSSSGSTSYADSVKGRFTISADTSKNTAYLQMNSLRAEDTAVYYCARGGWYPAMDYWGQGTLVTVSSASTKGPSVFPLAPSSKSTSGGTAALGCLVEDYFPEPVTVSWNSGALTSGVHTFPAVLQSSGLYSLSSVVTVPSSSLGTQTYICNVNHKPSNTKVDEKVEPKSCDKTHTCPPCPAPEAAGGPSVFLFPPKPKDTLMISRTPEVTCVVVDVSHEDPEVKFNWYVDGVEVHNAKTKPREEQYNSTYRVVSVLTVLHQDWLNGKEYKCKVSNKALGAPIEKTISKAKGQPREPQVCTLPPSRDELTKNQVSLSCAVKGFYPSDIAVEWESNGQPENNYKTTPPVLDSDGSFFLVSKLTVDKSRWQQGNVFSCSVMHEALHNHYTQKSLSLSP
light: DIQMTQSPSSLSASVGDRVTITCRASQSVSSAVAWYQQKPGKAPKLLIYSASSLYSGVPSRFSGSRSGTDFTLTISSLQPEDFATYYCQQISYVKKLITFGQGTKVEIKRTVAAPSVFIFPPSDRKLKSGTASVVCLLNNFYPREAKVQWKVDNALQSGNSQESVTEQDSKDSTYSLSSTLTLSKADYEKHKVYACEVTHQGLSSPVTKSFNRGEC
In the test with CD3 on Jurkat cells, B1 returned a Kd of 200 nM.

B2: P2AMR-1 in the human IgG1 format (antibody, V domains shown)
VH: QVQLVQSEPEVKKPGSSVKLSCKASGGTFSTDAITWVRQAPGQGLEYMGGIIPLLDSVDYAQRFQGRVTVSADKSTGTAYMEVRSLGSEDTAKYYCAKWSSVDTGLDYWGQGTLVTVSS
VL: QSVLIQPRSVSGSPGQSVTISCTGTSSDVGGYNYVSWYQQHPGKAPKLMIYDVSKRPSGVPDRFSGSKSGNTASLTVSGLQAEDEADYYCGSYADTDTIVFGTGTKLTVL
As for B2, the Kd in test [1] was 0.2 nM.

B3: IBA1-13 (antibody, V domains shown)
VH: EVQLVESGGGLVQPGGSLRLSCAASGFTLSSSSIHWVRQAPGKGLEWVASIYSSYGYTYYADSVKGRFTISADTSKNTAYLQMNSLRAEDTAVYYCARYYYYWYGGMDYWGQGTLVTVSS
VL: DIQMTQSPSSLSASVGDRVTITCRASQSVSSAVAWYQQKPGKAPKLLIYSASSLYSGVPSRFSGSRSGTDFTLTISSLQPEDFATYYCQQGHDMNPVTFGQGTKVEIKR
B3 showed a Kd in test [2] of 0.137 nM.

B4: IBA1-21 (antibody, V domains shown)
VH: EVQLVESGGGLVQPGGSLRLSCAASGFTISSSSIHWVRQAPGKGLEWVASISSYYGYTSYADSVKGRFTISADTSKNTAYLQMNSLRAEDTAVYYCARYYSYSSGYGYYDYFDWGAMDYWGQGTLVTVSS
VL: DIQMTQSPSSLSASVGDRVTITCRASQSVSSAVAWYQQKPGKAPKLLIYSASSLYSGVPSRFSGSRSGTDFTLTISSLQPEDFATYYCQQMQYSGWLITFGQGTKVEIKR
In test [2], B4 returned a Kd of 0.04 nM.

B5: IBA1-4 (antibody, V domains shown)
VH: EVQLVESGGGLVQPGGSLRLSCAASGFTVSSSSIHWVRQAPGKGLEWVASIYSYSGSTYYADSVKGRFTISADTSKNTAYLQMNSLRAEDTAVYYCARQYSSSYYVWPGMDYWGQGTLVTVSS
VL: DIQMTQSPSSLSASVGDRVTITCRASQSVSSAVAWYQQKPGKAPKLLIYSASSLYSGVPSRFSGSRSGTDFTLTISSLQPEDFATYYCQQYHYWASLITFGQGTKVEIKR
As to B5, in test [2], the Kd worked out at 0.65 nM.

B6: IBA1-7 (antibody, V domains shown)
VH: EVQLVESGGGLVQPGGSLRLSCAASGFTLSSSSIHWVRQAPGKGLEWVASISSYYGSTSYADSVKGRFTISADTSKNTAYLQMNSLRAEDTAVYYCARMHYSWQEYYSYDWGMDYWGQGTLVTVSS
VL: DIQMTQSPSSLSASVGDRVTITCRASQSVSSAVAWYQQKPGKAPKLLIYSASSLYSGVPSRFSGSRSGTDFTLTISSLQPEDFATYYCQQSYWWKSLVTFGQGTKVEIKR
With B6, the Kd in test [2] is 170 nM.

B7: IBA1-19 (antibody, V domains shown)
VH: EVQLVESGGGLVQPGGSLRLSCAASGFTFSYSSIHWVRQAPGKGLEWVASIYPSSGYTSYADSVKGRFTISADTSKNTAYLQMNSLRAEDTAVYYCARGWWYWMAWDYAMDYWGQGTLVTVSS
VL: DIQMTQSPSSLSASVGDRVTITCRASQSVSSAVAWYQQKPGKAPKLLIYSASSLYSGVPSRFSGSRSGTDFTLTISSLQPEDFATYYCQQSWMSDSLITFGQGTKVEIKR
The molecule B7 returned a Kd in test [2] of 0.52 nM.

B8: AMRA311-18 hIgG1 (antibody, V domains shown)
VH: EVQLVESGGGLVQPGGSLRLSCAASGFTISSSSIHWVRQAPGKGLEWVASIYSSSGSTSYADSVKGRFTISADTSKNTAYLQMNSLRAEDTAVYYCARVYSSRYWGWGVAFDYWGQGTLVTVSS
VL: DIQMTQSPSSLSASVGDRVTITCRASQSVSSAVAWYQQKPGKAPKLLIYSASSLYSGVPSRFSGSRSGTDFTLTISSLQPEDFATYYCQQWNWADYLVTFGQGTKVEIKR
On to B8, for which the Kd with RAS-AMG510 amounted to 52 nM.

B9: IBA1-8 (antibody, V domains shown)
VH: EVQLVESGGGLVQPGGSLRLSCAASGFTISYSSIHWVRQAPGKGLEWVASIYPSYGSTSYADSVKGRFTISADTSKNTAYLQMNSLRAEDTAVYYCARWQGYYQPALDYWGQGTLVTVSS
VL: DIQMTQSPSSLSASVGDRVTITCRASQSVSSAVAWYQQKPGKAPKLLIYSASSLYSGVPSRFSGSRSGTDFTLTISSLQPEDFATYYCQQPYYPLITFGQGTKVEIKR
Regarding B9, the Kd in test [2] stood at 62 nM.

B10: AMRA311-16 hIgG1 (antibody, V domains shown)
VH: EVQLVESGGGLVQPGGSLRLSCAASGFTISSSSIHWVRQAPGKGLEWVAYISSYSGYTYYADSVKGRFTISADTSKNTAYLQMNSLRAEDTAVYYCARYWYGHYHSYFGLDYWGQGTLVTVSS
VL: DIQMTQSPSSLSASVGDRVTITCRASQSVSSAVAWYQQKPGKAPKLLIYSASSLYSGVPSRFSGSRSGTDFTLTISSLQPEDFATYYCQQSSSSLITFGQGTKVEIKR
Turning to B10, in the test with RAS-AMG510, the Kd was 71 nM.

B11: AMRA311-17 hIgG1 (antibody, V domains shown)
VH: EVQLVESGGGLVQPGGSLRLSCAASGFTISSSSIHWVRQAPGKGLEWVASISSYSGSTYYADSVKGRFTISADTSKNTAYLQMNSLRAEDTAVYYCARYPYGSHVYTGLDYWGQGTLVTVSS
VL: DIQMTQSPSSLSASVGDRVTITCRASQSVSSAVAWYQQKPGKAPKLLIYSASSLYSGVPSRFSGSRSGTDFTLTISSLQPEDFATYYCQQSSSSLITFGQGTKVEIKR
On to B11, for which the Kd with RAS-AMG510 amounted to 180 nM.
